For 7 molecules, binding result and Kd results are on record in article doi:10.1101/2025.09.12.675771 (bioRxiv, 2025).

Changes are numbered by the printed parent chain. Numbers in names are those of the source.

Experiment [1] has as its target SARS-CoV-2 RBD (residues 332-527), wild type (SARS-CoV-2, wild type (Wuhan-Hu-1), UniProt P0DTC2).
For experiment [2], the target named is Programmed death-ligand 1 (PD-L1) (Homo sapiens (assumed), UniProt Q9NZQ7). Kind of experiment: SPR; format and conditions not told. As to conditions: both partners purified. (In SPR one partner is held on a chip, and binding of the other changes the refractive index at the surface.)
For experiment [3], the target named is RBD of COVID-19 (SARS-CoV-2, wild type (Wuhan-Hu-1) …, UniProt P0DTC2).

Chain of Programmed death-ligand 1 (PD-L1) (Q9NZQ7 19-290): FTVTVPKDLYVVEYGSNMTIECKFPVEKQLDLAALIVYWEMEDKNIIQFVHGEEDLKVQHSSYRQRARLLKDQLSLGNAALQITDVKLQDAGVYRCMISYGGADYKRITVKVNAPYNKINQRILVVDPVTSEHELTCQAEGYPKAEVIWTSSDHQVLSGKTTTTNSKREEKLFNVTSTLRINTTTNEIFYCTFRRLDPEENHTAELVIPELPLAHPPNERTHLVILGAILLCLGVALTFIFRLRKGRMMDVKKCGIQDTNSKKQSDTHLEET

B1: R1-32-Q61E-WT (antibody, V domains shown)
VH: EVQLVQSGAEVKKPGSSVKVSCKASGGTFSSYFISWVRQAPGQGLEWMGGIIPILGIADYAEKFQGRVTITADKSTSTAYMELSSLRSEDTAVYYCARENGYSGYGAAYNFDLWGRGTLVTVSS
VL: QSVLTQPPSVSGAPGQRVTISCTGSDSNIGAGYDVHWYQQLPGTAPKLLIYGNSNRPSGVPDRFSGSKSGTSASLAITGLQAEDEADYYCQSYDSSLSGSVFGGGTKLTVL
In the case of B1, the binding result in experiment [1] is reported as “binds”.

B2: D1 (antibody, V domains shown)
VH: not shown
VL: DIQMTQSPSTLSASVGDRVTITCKASQDVNTAVAWYQQKPGKAPKLLIYWASTLHTGVPSRFSGSGSGTEFTLTISSLQPDDFATYYCQHYYTDPWTFGQGTKVEIK
In general, Kd refers to the concentration at which binding is half-saturated. High values mean weaker binding, low ones tighter binding. In the case of B2, the Kd in experiment [2] came to 0.084 nM.

B3: Human-1 (antibody, V domains shown)
VH: QVQLKESGPGLVKPSQTLSLTCTVSGFSLINYAISWIRQPPGKGLEWIGVIWTGGGTNYNSALKSRLTISKDTSKNQVSLKLSSVTAADTAVYYCARKDYYGRYYGMDYWGQGTTVTVSS
VL: QAVVTQEPSFTVSPGGTVTLTCRSSTGAVTTSNYANWYQQTPGQLFTGLIGGTNNRAPGVPDRFSGSLLGDKAALTITGAQADDEAIYYCALWYNNHWVFGGGTKLTVL
Molecule B3 came in with a Kd in experiment [3] of 0.171 nM.

B4: Human-5 (antibody, V domains shown)
VH: QVQLQESGPGLVKPSETLSLTCTVSGFSLINYAISWVRQPPGKGLEWLGVIWTGGGTNYNSALKSRLTISKDNSKNTVYLKMNSLKTEDTARYYCARKDYYGRYYGMDYWGQGTLVTVSS
VL: B3 VL with T11S, Y38V, Q40E, L45A, T47R, D71N, A86S
The molecule B4 displayed a Kd in experiment [3] of 0.139 nM.

B5: D2 (antibody, V domains shown)
VH: not shown
VL: DIQMTQSPSTLSASVGDRVTITCRASQDVSSYLAWYQQKPGKAPKLLIYAASFLQSGVPSRFSGSGSGTEFTLTISSLQPDDFATYYCQQHYSTPPTFGQGTKVEIK
Turning to B5, the binding result in experiment [2] is “binds”.

B6: D4 (antibody, V domains shown)
VH: EVQLLESGGGLVQPGGSLRLSCAASGFTFSNYAMSWVRQAPGKGLEWVSAISSGGGYTYYADSVKGRFTISRDNSKNTLYLQMNSLRAEDTAVYYCAKDHDYAYYAFDYWGQGTLVTVSS
VL: B5 VL with D28S, V29I, S31N, Y32W, A50W, F53T, Q55E, H91Y, Y92A, P96L
Take B6: the binding result in experiment [2] is on record as “binds”.

B7: D3 (antibody, V domains shown)
VH: not shown
VL: DIQMTQSPSTLSASVGDRVTITCRASQTIGTWLAWYQQKPGKAPKLLIYTATSLADGVPSRFSGSGSGTEFTLTISSLQPDDFATYYCQQVSSNPRTFGQGTKVEIK
With B7, in experiment [2], the binding result is reported as “binds”.
